According to publication PMC8519809 (Cell Reports, 2021):

Biological target: SARS-CoV-2 S-HexaPro protein (SARS-CoV-2, Wuhan-Hu-1 type, stabilised)
Assay: SPR

B1: Fab22 (Fab, V domains shown)
VH: EVQLQQPGPVLVKPGASVRMSCKASGYRITDNFMNWVKQSHGKSLEWIGIINPYNGGTKYNQKFKGKATLTVDTSSSTAYMELNSLTSEDSAVYYCTRVRGNDYHGRAMDYWGQGTSVTVSS
VL: DVVLTQTPLSLPVNIGDQASISCKSTKSLLNRDGFTFLDWYLQKPGQSPQLLIYLVSNRFSGVPDRFSGSGSGTDFTLKISRVEAEDLGVYYCFQSNYLFTFGSGTKLEIK
B1 gave a Kd of 6.7 nM.
